Measured values from US20090143724A1, “Microprojection Array Immunization Patch and Method” (Alza Corporation, priority 2001, published 2009).

Tests used:
hairless guinea pigs = experiment: Example 2: immunization with tip-coated arrays; anti-ovalbumin IgG titer by ELISA; format: in vivo, hairless guinea pig; conditions: tip-coated array patch, 5 seconds wearing; two and three weeks after primary immunization; six animals
Method: Identical microprojection arrays were coated with untagged ovalbumin using a similar methodology. The amount of protein coated on the arrays was evaluated by total protein assay. The target dose of 5 μg of ovalbumin (OVA) was coated with acceptable reproducibility (4.6±0.5 μg) using a 20 wt % OVA coating solution. Immunization studies were conducted with these arrays in one group of six hairless guinea pigs. Systems and system application in animals was the same as described above except that the wearing time in all guinea pigs was 5 seconds. Three additional groups of animals received intradermal injections of 0.1, 1.0, and 10 μg ovalbumin. Blood samples were taken at various time intervals and evaluated for antibody (IgG) titer against ovalbumin by ELISA.

[1] = tested on: hairless guinea pigs (HGPs); experiment: Immunization of hairless guinea pigs with OVA; anti-OVA IgG titers by ELISA; format: in vivo, hairless guinea pig; conditions: for Increase in antibody titer over non-adjuvant controls: about 1 μg OVA with 15 μg GMDP, one week after booster
Method: Baseline blood samples were obtained from all animals before the day of immunization. On the day of immunization, the HGPs were anesthetized and the treatment sites were cleaned with 70% isopropyl alcohol and allowed to dry. For immunizations performed by needle injection, OVA was dissolved in sterile water. Sterile 1-mL syringes with 25-gauge needles (Becton Dickinson, Franklin Lakes, N.J.) were used. ID and SC injections were performed on the dorsal-lateral area of HGPs. The quadriceps muscle of the hind leg was used for IM injection. Microprojection arrays containing dry-coated OVA were applied as described above.
Each HGP received a primary immunization (Day 0) followed by a secondary (i.e., booster) immunization 4 weeks later with an identical article. After primary immunization, HGPs were anesthetized and blood was collected from the anterior vena cava. The serum samples were evaluated by immunoassay for the presence of anti-OVA antibodies.
Sera from nonimmunized and immunized HGPs were tested for the presence of antibodies to OVA by enzyme-linked immunosorbent assay (ELISA). Briefly, 96-well polystyrene plates (Maxisorp, NUNC, Rochester, N.Y.) were coated with 0.1 muwell of OVA (10 μg/mL in 0.2 M Na bicarbonate/carbonate buffer, pH 9.6) and incubated overnight at 4° C. The plates were washed with PBS-Tween buffer then blocked with 200 μL of PBS/casein (0.5%)/Tween-20 (0.05%) buffer for 1 hour at room temperature. Then the plates were again washed and the test sera were added (100 μL/well at 2- to 5-fold serial dilutions, three replicates, 1 hour at room temperature). After washing, 100 μL peroxidase conjugated goat anti-guinea pig IgG antibody (Jackson ImmunoResearch Laboratories, West Grove, Pa.) was added and incubated for 1 hour at room temperature. After incubation, the plates were washed, 100 μL of substrate (ABTS, Becton Dickinson, Franklin Lakes, N.J.) was added, and they were incubated for 35 minutes at room temperature. Absorbance ([…]) was measured using a SpectraMAX 250 (Molecular Devices Corporation, Sunnyvale, Calif.). The results are expressed as endpoint antibody titers relative to nonimmunized control sera samples.
Results are presented as the mean with its associated standard error of the mean. Comparison between groups was performed by analysis of variance (ANOVA).

[2] = OVA delivery into hairless guinea pig skin from dry-coated microprojection arrays (skin biopsy fluorometry); format: in vivo; conditions: for Amount of ovalbumin delivered: 2 cm^2 array applied 5 seconds on HGP skin, n=3, mean ± SEM; for OVA delivered into the skin: 2 cm^2 device coated with 20% OVA solution
From the text: The treatment sites (lateral area of the thorax) of anesthetized HGPs were cleaned with isopropyl alcohol wipes (70%) and allowed to dry. The skin site was lightly stretched manually when the system was applied using an impact applicator. Following application, the stretching tension was released and the system was left on the skin for the specified period of time. For devices left on skin for more than 5 seconds, the HGPs were wrapped with Vetwrap® (3M, St Paul, Minn.) and individually housed.
Each HGP received a dry-coated FITC-OVA microprojection array, which was applied as described above. Following system removal, the treated skin sites were thoroughly washed with 70% isopropyl alcohol to remove any residual OVA on the skin surface. The HGPs were euthanized and 8-mm skin biopsies were taken. Each tissue sample was placed in a scintillation vial with 0.1 mL deionized water. Hyamine hydroxide (0.9 mL, 1 M in methanol, JT Baker, Phillipsburg, N.J.) was then added, and the samples were incubated overnight at 60° C. Thereafter, the dissolved material was further diluted with 2 mL hyamine hydroxide/water (9:1), and fluorescence was quantitated by fluorometry and compared to known standards. Background control samples included untreated skin. A minimum replicate of three was used for each experimental condition.

[3] = Example 2: ovalbumin delivery into hairless guinea pig skin from tip-coated arrays; format: in vivo; conditions: for Delivery efficiency: tip-coated arrays
From the text: Some of these microprojection arrays were applied to hairless guinea pigs (three animals per group) for evaluation of ovalbumin delivery into the skin. The skin of the animal flank was stretched manually bilaterally ( ? and ? ) at the time of application of the system. […] The system applied comprised an ovalbumin coated microprojection array, adhered to the center of a low density polyethylene film backing with an acrylate adhesive (7 cm^2 disc). Following application, the stretching tension was released and the system was removed after 5 seconds or 1 hour contact with the skin. Following removal of the system, residual drug was thoroughly washed from the skin and an 8 mm skin biopsy was taken at the location of the application. The total amount of ovalbumin delivered in the skin was determined by dissolving the skin biopsy in hyamine hydroxide (1M in methanol). Quantitation was performed by fluorimetry. […] Delivery efficiency was also found to be relatively independent of the thickness of the coating.

[4] = 1 μg OVA, 1 week after booster immunization

## ovalbumin [model protein antigen (Grade V, SIGMA); FITC-labeled form used for coating and delivery quantitation]
Hairless guinea pigs
  Development of anti-ovalbumin IgG antibodies: all animals dosed with the microprojection array patch had developed anti-ovalbumin IgG antibodies
[1]; [4]
  Antibody level, microprojection array relative to IM injection: 50 fold
  Antibody level, microprojection array relative to SC injection: 10 fold
[1]; 5 μg OVA, 1 week after booster immunization
  Antibody titer, microprojection array relative to IM needle administration: 24 fold
[1]; 1 and 5 μg doses of OVA
  Antibody response, microprojection array relative to subcutaneous or intramuscular administration: up to 50 fold
  Antibody response, microprojection array versus intradermal administration: equivalent
[1]; 20 or 80 μg OVA, 1 week after booster immunization
  Antibody titers, microprojection array versus conventional ID, SC or IM injection: comparable

## CC(=O)NC1C(OC2C(CO)OC(O)C(NC(C)=O)C2OC(C)C(=O)N[C@@H](C)C(=O)N[C@H](CCC(N)=O)C(=O)O)OC(CO)C(O)C1O (stereo partly drawn) [GMDP, N-acetylglucosamine-(β1-4)-N-acetylmuramyl-L-alanyl-D-glutamine, reference compound]
[1]; 1 μg OVA with about 15 μg GMDP by microprojection array
  Antibody titers with arrays delivering GMDP and OVA versus OVA alone (dose-sparing): approached the titer levels achieved with OVA doses of 20 μg or greater in the absence of GMDP
[1]; ID administration
  Increase in antibody titer over non-adjuvant controls: 250%
[1]; microprojection array administration
  Increase in antibody titer over non-adjuvant controls: 1300%
[2]; OVA and GMDP dry-coated arrays, data not shown
  Effect of the adjuvant on the amount of OVA delivered: did not significantly affect the amount of OVA delivered

B1: ovalbumin (protein, UniProt P01012 2-386, looked up)
Ovalbumin: GSIGAASMEFCFDVFKELKVHHANENIFYCPIAIMSALAMVYLGAKDSTRTQINKVVRFDKLPGFGDSIEAQCGTSVNVHSSLRDILNQITKPNDVYSFSLASRLYAEERYPILPEYLQCVKELYRGGLEPINFQTAADQARELINSWVESQTNGIIRNVLQPSSVDSQTAMVLVNAIVFKGLWEKAFKDEDTQAMPFRVTEQESKPVQMMYQIGLFRVASMASEKMKILELPFASGTMSMLVLLPDEVSGLEQLESIINFEKLTEWTSSNVMEERKIKVYLPRMKMEEKYNLTSVLMAMGITDVFSSSANLSGISSAESLKISQAVHAAHAEINEAGREVVGSAEAGVDAASVSEEFRADHPFLFCIKHIATNAVLFFGRCVSP
modifications: FITC label (in one form)
notes: model protein antigen (Grade V, SIGMA); FITC-labeled form used for coating and delivery quantitation
[3]; tip-coated 2 cm^2 arrays, 5 second or 1 hour wearing
  OVA delivered into hairless guinea pig skin: up to 4.5 μg
[3]; 5 second wearing time
  Delivery efficiency: higher than 55%
[3]; 1 hour wearing time
  Delivery efficiency: > 85%
[1]; 20 or 80 μg OVA by microprojection array, 2 weeks after primary immunization
  Seroconversion after primary immunization: seroconverted by 2 weeks after the primary immunization
[1]; OVA by microprojection array, all doses tested (1, 5, 20, 80 μg)
  Seroconversion after booster immunization: All animals had seroconverted
[2]; 1% coating concentration
  Amount of ovalbumin delivered: about 1 μg/cm^2
[2]; 1% coating concentration, listed as Ovalbumin
  Amount of ovalbumin delivered: 0.9 ± 0.1 μg/cm^2
[2]; 30 minute application
  OVA delivered into the skin: 50 µg
[2]; 1 hour application
  OVA delivered into the skin: approximately 80 μg
[2]; 5% coating concentration
  Amount of ovalbumin delivered: ~6 μg/cm^2
[2]; 5% coating concentration, listed as Ovalbumin
  Amount of ovalbumin delivered: 5.8 ± 1.4 μg/cm^2
[2]; 20% coating concentration
  Amount of ovalbumin delivered: ~10 μg/cm^2
[2]; 20% coating concentration, listed as Ovalbumin
  Amount of ovalbumin delivered: 9.9 ± 0.6 μg/cm^2
[2]; Delivery condition I: 1% coating, wearing time 5 seconds, surface area 1 cm^2
  Approximate dose delivered: ~1 µg
[2]; Delivery condition II: 5% coating, wearing time 5 seconds, surface area 1 cm^2
  Approximate dose delivered: ~5 µg
[2]; Delivery condition III: 20% coating, wearing time 5 seconds, surface area 2 cm^2
  Approximate dose delivered: ~20 µg
[2]; Delivery condition IV: 20% coating, wearing time 3600 seconds, surface area 2 cm^2
  Approximate dose delivered: ~80 µg
[2]; array coated from OVA (1%) and GMDP (10%)
  OVA delivered from arrays dry-coated with OVA and GMDP: approximately 1 μg
